This note sets out measurements from patent publication US20160200831A1 (Sanofi, published 2016).

Where two headings read alike, the source gives them in different places.

Experiment [1] concerns the target T1, glycosylated human PAI-1 (active form) (human, UniProt P05121 24-402, glycosylated). In words: cell-based or functional assay.
In experiment [2] the target is T1, glycosylated human PAI-1 (active form). In words: cell-based or functional assay. The source holds these as a separate data set.
Experiment [3] has as its target T2, human PAI-1 (human, UniProt P05121 24-402). Description: cell-based or functional assay.
In experiment [4] the target is T3, cynomolgus PAI-1 (cynomolgus monkey (Macaca fascicularis), UniProt P05121 24-402 (human entry)). Description: cell-based or functional assay.
T3 sequence (P05121 other isoform, or with tags, fused parts or gaps limits assumed): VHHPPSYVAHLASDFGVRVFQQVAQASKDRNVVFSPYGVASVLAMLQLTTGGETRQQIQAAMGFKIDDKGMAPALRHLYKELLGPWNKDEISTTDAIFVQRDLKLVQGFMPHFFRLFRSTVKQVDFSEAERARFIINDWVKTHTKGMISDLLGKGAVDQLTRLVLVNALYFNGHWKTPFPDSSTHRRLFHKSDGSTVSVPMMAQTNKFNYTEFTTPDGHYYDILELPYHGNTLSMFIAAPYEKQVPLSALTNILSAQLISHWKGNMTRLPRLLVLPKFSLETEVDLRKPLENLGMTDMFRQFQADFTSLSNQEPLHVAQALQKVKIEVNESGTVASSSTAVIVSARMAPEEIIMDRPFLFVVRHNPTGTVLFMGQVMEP
Experiment [5] has as its target T2, human PAI-1. Description: Biacore, hybridoma supernatant. (In SPR one partner is held on a chip, and binding of the other changes the refractive index at the surface.)
Experiment [6] has as its target T4, cyno PAI-1 captured on immobilized human vitronectin (cynomolgus monkey; human, UniProt P04004 20-478, limits assumed).
T4 construct: non-covalent complex formed on the chip; also called cPAI-1/Vn
In words: Biacore, cPAI-1 on vitronectin chip, 1:1 model.

Experiment [7] deals with T1, glycosylated human PAI-1 (active form). Description: Biacore (summary table). On the procedure:
(§1) In kinetics measurement, the antibodies were evaluated in reverse at 25° C. In the reverse assay, PAI-1 antibodies were captured to the anti-mouse IgG Fc antibody surface prepared on CM5 chip followed by injecting the serial 2× dilutions of PAI-1 proteins (human or cyno) starting at 40 nM. A high flow rate was chosen at 50 ul/min to avoid mass transportation limitation. Two thousand seconds was allowed for dissociation time to accommodate for the slow off rate of the selected antibodies. The chip was regenerated by glycine-HCl, pH 1.7 buffer after each round of antibody-PAI-1 binding. Kinetics data analysis was performed using Biacore BIAevaluation software. The sensorgrams were double-referenced by subtracting the reference flow cell values and the blank buffer values. The sensorgrams were fitted by using the simulated kinetics 1:1 (Langmuir) model with local Rmax.

In experiment [8] the target is T5, human PAI-1 captured on immobilized human vitronectin (human, UniProt P04004 20-478).
T5 construct: non-covalent complex formed on the chip or plate; also called PAI-1/Vn complex; Vn captured hPAI-1
T5 sequence (chain, as listed by the source limits assumed, chain 1 of 2): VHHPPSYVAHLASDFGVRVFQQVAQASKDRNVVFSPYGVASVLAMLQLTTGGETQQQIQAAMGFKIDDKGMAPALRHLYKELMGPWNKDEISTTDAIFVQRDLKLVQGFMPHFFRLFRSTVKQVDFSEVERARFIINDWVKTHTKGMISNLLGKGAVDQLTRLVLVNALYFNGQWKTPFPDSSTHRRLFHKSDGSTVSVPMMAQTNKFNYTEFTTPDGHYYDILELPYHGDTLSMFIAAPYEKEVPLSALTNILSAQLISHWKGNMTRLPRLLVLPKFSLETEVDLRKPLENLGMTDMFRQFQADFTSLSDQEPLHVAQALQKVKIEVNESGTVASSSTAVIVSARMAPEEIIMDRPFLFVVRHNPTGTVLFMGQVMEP
T5 sequence (P04004 20-478 limits assumed, chain 2 of 2): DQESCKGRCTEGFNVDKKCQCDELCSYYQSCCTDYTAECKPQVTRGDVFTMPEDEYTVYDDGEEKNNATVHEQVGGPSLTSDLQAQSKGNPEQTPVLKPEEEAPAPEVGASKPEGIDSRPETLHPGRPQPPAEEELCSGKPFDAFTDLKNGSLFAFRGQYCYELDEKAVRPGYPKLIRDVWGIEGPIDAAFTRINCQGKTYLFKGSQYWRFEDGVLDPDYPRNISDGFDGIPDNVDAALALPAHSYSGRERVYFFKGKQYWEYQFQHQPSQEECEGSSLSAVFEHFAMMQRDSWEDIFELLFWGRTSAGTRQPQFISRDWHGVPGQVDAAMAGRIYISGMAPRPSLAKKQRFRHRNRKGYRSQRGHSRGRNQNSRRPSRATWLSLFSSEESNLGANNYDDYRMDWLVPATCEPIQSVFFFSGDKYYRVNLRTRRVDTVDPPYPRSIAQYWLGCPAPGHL
In words: Biacore forward assay, hPAI-1 captured on immobilized vitronectin. On the procedure: Binding kinetics of representative antibodies were further analyzed and compared in Biacore forward assay with vitronectin and PAI-1 complex. In the forward assay, human vitronectin protein was immobilized onto the CM5 chip in flow cells Fc1-Fc4 by amine coupling. Human PAI-1 was then captured to the vitronectin surface in flow cells Fc2-Fe4 as ligand. Fc1 was reserved as reference cell. The antibodies were diluted 2× starting from 40 nM and injected to Fc1-4. Kinetics data analysis was performed using Biacore BIAevaluation software. The sensorgrams were first double-referenced by subtracting the reference cell values and the blank buffer values, and then fitted by 1:1 (Langmuir) model was used with global Rmax.

For experiment [9], the target named is T2, human PAI-1. Description: cell-based or functional assay. The source holds these as a separate data set.
Experiment [10] concerns the target T5, human PAI-1 captured on immobilized …. Description: Biacore, hPAI-1 on vitronectin chip, 1:1 model.
In experiment [11] the target is T3, cynomolgus PAI-1. In words: Biacore reverse assay, mAb captured by anti-mouse IgG Fc, 25 C. On the procedure: as §1
Experiment [12] deals with T2, human PAI-1. The experiment is described as above. How it is done: as §1
In experiment [13] the target is T1, glycosylated human PAI-1 (active form). Description: cell-based or functional assay. This is another data set of the same source.
The target is the same in experiment [14]. Description: cell-based or functional assay. This is another data set of the same source.
The target of experiment [15] is T4, cyno PAI-1 captured on immobilized …. Description: Biacore, cPAI-1 on vitronectin chip, two state reaction model (ka1).
For experiment [16] the target is unchanged. In words: Biacore, cPAI-1 on vitronectin chip, two state reaction model.
Experiment [17] concerns the target T5, human PAI-1 captured on immobilized …. Description: Biacore, hPAI-1 on vitronectin chip, two state reaction model.
Experiment [18] concerns the target T4, cyno PAI-1 captured on immobilized …. Description: Biacore, cPAI-1 on vitronectin chip, two state reaction model (kd1).
Experiment [19] deals with T5, human PAI-1 captured on immobilized …. Description: Biacore, hPAI-1 on vitronectin chip, two state reaction model (ka1); two state reaction model, ka1 is the first-step rate.
Experiment [20] has the same target. In words: Biacore, hPAI-1 on vitronectin chip, two state reaction model (kd1).
Experiment [21] has as its target T2, human PAI-1. Description: Biacore reverse assay, mAb captured by anti-mouse IgG Fc, 25 C; reverse assay: B28 captured by anti-mouse IgG Fc, PAI-1 injected, 25 C. How it is done:
as §1

Experiment [22] has as its target T2, human PAI-1. Description: Biacore, hybridoma supernatant; hybridoma supernatant, off-rate screen (class, not a fitted rate). How it is done: In the Biacore reverse screening assay, ELISA positive hybridoma supernatants were selected and filtered through 0.2 μm filters before being injected onto Biacore chip surface. Each hybridoma supernatant was injected onto one flow cell of flow cells Fc2-Fc4 and the IgG in the hybridoma supernatant would be captured to the chip surface by anti-mouse IgG Fc mAb, while Fc1 was left alone as reference cells. Human PAI-1 protein in PBS was then injected to Fc1 to Fc4. PBS buffer was also injected over the chip surface as a blank. After subtracting signals of Fc1 and blank buffer runs, the binding affinity (KD)/disassociation rate (kd) of the antibody from the supernatants to PAI-1 protein was analyzed and ranked using Scrubber 2 software.

For experiment [23], the target named is T2, human PAI-1. In words: cell-based or functional assay. This is another data set of the same source.

T4 sequence (chain, as listed by the source limits assumed, chain 1 of 2): as the sequence (P05121 other isoform, or with tags, fused parts or gaps limits assumed) above
T4 sequence (P04004 20-478 limits assumed, chain 2 of 2): as the sequence (P04004 20-478 limits assumed, chain 2 of 2) above

B1: A44 (antibody, mouse IgG1, V domains shown)
VH: EMQLQESGPSLVKPSQTLSLTCSVTGDSMTNGYWNWIRKFPGNKLEYMGYITYSGSTYYNPSLKGRISITRNTSKNQYYLQLSSVTTEDTATYYCARWHYGSPYYFDYWGQGTTLTVSS
VL: DIKMTQSPSSMYASLGERVTITCKASQDINSYLSWLQQKPGKSPKTLIYRANRSVDGVPSRFSGSGSGQDYSLTISSLEYEDMGIYYCLQYDEFPPTFGGGTKLEIKR
notes: mouse IgG1/kappa; also called mA44; A44 parental
For orientation: koff means the rate constant with which the complex falls apart. Usually Kd stands for a measure of binding affinity in units of concentration. The kon is the rate constant with which the complex forms. As for B1, the “Plasmin Generation” value in experiment [1] is 3.32 nM. Besides, the “Plasminogen Activation IC50” value is 3170 pM in experiment [2] and 3130 pM in experiment [14]. In addition, the “Plasminogen Activation Y50%” value in [2] was 46%; in [14], 79.8%. Moreover, the “Chromogenic Assay IC50” value with human PAI-1 [3] is 440 pM. In addition, the “EC50, % PAI-1 neutralization, 2.8 nM cyno PAI-1 (chromogenic assay with human tPA); plateau about 100 %” value with cynomolgus PAI-1 [4] turned out to be 226 pM. For the same molecule, the koff in the experiment with human PAI-1 [5] was not above 0.0001 s⁻¹; in [6], 0.000275 s⁻¹; in experiment [8], not above 1e-06 s⁻¹; in [10], 0.000229 s⁻¹; with cynomolgus PAI-1 [11], not above 1e-06 s⁻¹; with human PAI-1 [12], 1.49e-05 s⁻¹. Further, the Kd is 69.6 pM in experiment [6]; 0.042 pM in experiment [7]; not above 1 pM in [8]; 40.4 pM in [10]; not above 0.1 pM in the experiment with cynomolgus PAI-1 [11]; 3.76 pM with human PAI-1 [12]. In addition, the kon in experiment [6] was found to be 3.98e+06 M⁻¹ s⁻¹; in experiment [10] it was 5.68e+06 M⁻¹ s⁻¹. Further, in the experiment with human PAI-1 [9], the “EC50, fall of % tPA inhibition by PAI-1 (chromogenic neutralisation assay)” value amounted to 4030 pM. In addition, the “plasmin generation, hepatic stellate cells, IC50abs” value in experiment [13] is 3320 pM. Further, the “plasmin generation, hepatic stellate cells, Imax” value in [13] was 97%.

B2: A44-hv2 (antibody, V domains shown)
VH: EMQLQESGPGLVKPSETLSLTCSVTGDSMTNGYWNWIRKFPGKGLEYMGYITYSGSTYYNPSLKGRISITRNTSKNQYYLKLSSVTTADTATYYCARWHYGSPYYFDYWGQGTTLTVSS
VL: DIKMTQSPSSVSVSPGQTVTITCKASQDINSYLSWLQQKPGQSPKTLIYRANRSVDGVPSRFSGSGSGQDYSLTISSLQAMDEGIYYCLQYDEFPPTFGGGTKLTIK
notes: humanized A44, HEK293; constant regions as for A44-hv1; also called LC1b x HC1b; variant 2
B2: the values for the kon in experiment [15] and in [19] were 2.3e+06 M⁻¹ s⁻¹ and 2.99e+06 M⁻¹ s⁻¹, respectively. For the same molecule, the Kd in experiment [16] amounted to 137 pM; in experiment [17] it was 135 pM. Besides, the koff in [18] was 0.000314 s⁻¹; in experiment [20], 0.000403 s⁻¹. The “Chromogenic Assay IC50” value with human PAI-1 [3] was 600 pM.

B3: B28 (antibody, mouse IgG2b, V domains shown)
VH: QVQLQQSGAELMKPGASVKISCKATGYTFSISWIEWIKQRPGGLEWIGKILPGSGGANYNEKFKGKATVTADTSSNTVYMQLSSLTSEDSAVYYCARLSTGTRGAFDYWGQGTTLTVSS
VL: DIQLTQSPASLSASVGATVTITCRASENVYSYLAWYQQKQGKSPQLLVYNAKTLAEGVPSRFSGSGSGTQFSLKINYLQPEDFGSYYCQHHYGTPPTFGGGTKVEIKR
notes: mouse IgG2b/kappa; also called mB28; B28 (IgG2b/k)
B3: in experiment [1], the “Chromogenic Assays” value was determined as 1.8 nM and the “Plasmin Generation” value came out at 7.28 nM. In the experiment with human PAI-1 [21], the Kd stood at 650 pM and the koff was determined as 0.000461 s⁻¹. Besides, in [7], the Kd was found to be 650 pM. In addition, the koff in the experiment with human PAI-1 [22] is not above 0.0001 s⁻¹. Further, in experiment [13], the “plasmin generation, hepatic stellate cells, IC50abs” value was determined as 7280 pM and the “plasmin generation, hepatic stellate cells, Imax” value was 90%. The “EC50, % neutralization of hPAI-1 (chromogenic assay)” value with human PAI-1 [23] was found to be 2300 pM.
